Results taken from the DeepSol protein solubility set.

Experiment: soluble on expression in E. coli; label from the status in PepcDB or PDB records

Sequence | soluble on expression in E. coli
SDSAFANLDAAGFLQIWQHFDADDNGYIEGKELDDFFRHMLKKLQPKDKITDERVQQIKKSFMSAYDATFDGRLQIEELANMILPQEENFLLIFRREAPLDNSVEFMKIWRKYDADSSGYISAAELKNFLKDLFLQHKKKIPPNKLDEYTDAMMKIFDKNKDGRLDLNDLARILALQENFLLQFKMDASSQVERKRDFEKIFAHYDVSRTGALEGPEVDGFVKDMMELVRPSISGGDLDKFRECLLTHCDMNKDGKIQKSELALCLGLKHKP | soluble
MINMKALVGGIILPVSSPPIKNGVLLFDEESGKIVAVGKKEEVTIPEDAEIIEAPGKYISPGFVDAHSHIGMIPDGLEWEFQEANDFYSPIAPHLRAVDGFDPYDEAFKEAIAGGVTTVATGPGSANVMGGIGLLAKTYEEGFEKIIKPEAFIKMALGPKRPREYKSKYPYPTTRMGTVALMRTWFKRAREFMEGKIKTDNIDEEEIEMLRLLARALKREIQVKIHLSTSPDEIYAAIRIIKEFNLNATIDHAFGSQLVADMLSREGIPVIYGPPMITRIASFFRYVDDKAPVLLFKKGVNVSIMTDHPVLPEKHLRLLAAVVARNGLSLDDALKLITINPAKALGIDRFVGSLEPGKDADIVISSDHPIKPTSKIEIVFGRGREVYKAD | soluble
MLKMKNNGGGCLAYISDCSVYLPVWKLKRDEISKETGMPSMGGERAVAHWDEDSITMAVEAARKFDGAFDAVIFASSSPPFRIKQCASFIASALDLPDSTFTMDITDTMRAATDALITANEFVDSGRFSRVLVVAGDKIPTKPGTLYEQLYGDAAAAVVVEKEGGAKILGYSTSTKPLPGSWMLADDDTVRDYDMRVDARYGYAASVQKAAMPLFAKLGLSPADIDRIVASAPDPKSYQGLLKAVGARPEEFYFDSVGIAGSAHPLLLLATQLEREGRILLGGYGEGADVIAVEIEQAMDSNMGRMLESRKEISYGDYLFNRGFVGVRDAPDRPSLTKFWRDEKSIIRFYGMKCKSCGTVSYPISRCCIECGAKDNYEEVRLGERGKIYTFTIDYLVMPGNYAGDGVHPHFIAVVDLDGGGRVLFELTDTLRDFSGVECDAEVERTFRLLFEKNRFRYYGWKARLPRLEHHHHHH | soluble
MGSDKIHHHHHHMGVQETKIYPINTGWLEADLGTYIFWKGPAGQKIWNPVYCHYVDTGTHKILIDTGLCDEERATKYHHKCDKRGCLQVHEHLEQKLGVHPDEIDAVVFTHLHWDHVQNMKEFKNARYIAPKAEIEMAFNPLPLYYRTYESGYLGIEPAYTGCVFEAVEDECEVLPGITMFHTPGHSVGHMAVTVATSAGDIVVAGDAIFQERNMEPNEAEGWRYWVPARFVNSYEGWKSVEELDKRADYILACHDKVANARSNVFPYEGMPIRKRRQHIPGFKFYFGDMPAGATDKAAPALTADEAKEYLANLVPPTPD | not soluble
MSDQEDKEVPDVEVDYSKYDEDSVPIPEKDIEESHPGRPDLDYDETPVGPAPTECTEEKND | not soluble
MKGVNQQKKRLKVMTPLEKYQQDLNQEGFMHDSAQRNAVEHLDDLYRRFLELKVPEEPAKKSWKRFFKKEKPQKLTPEKGLYFWGGVGRGKTYLVDTFYDALPTERKMRIHFHRFMQRVHDELGELKQQSDPLLIVADKFKQETDIICFDEFFVSDITDAMILATLLEALFARGITLVATSNILPQDLYRNGLQRARFLPAISLIEQHCDIINVDSGVDYRLRTLEQAEIYHYPLDSDAETNMKGYFLQLASGCDYESTQIEINHRLIEVKAEGDGVVHFDFASLCESARSQHDYIELSRLYHTVLLSNVKIMGEVNDDAARRFIAMVDEFYERNVKLIISAEVDLTSIYQKGRLTFEFQRCQSRLIEMQSHEYLSKEHLSLEHHHHHH | not soluble
MPVLGQIWELSDSQKVGSLDKRGAFVAFKLVAAAQQGKPVANSSLYDSSLQPPRFAPPVPPANMQHHFQPSFPSVGRAPPVPPPPHPSHPYSISSQQSSPAHPSSAFPPQWPITPTDQAKYDSIFQSLNPVNGKLSGAHVRPVLMNSGLDAHALARIWELSDQDKDGNLDRIEMSVALHLVYRSLQSDPVPAQLPPNLIHPSKAMYAHSSPNFAAPPHPPRPMMGSRAGSVTSLDDVNMSQSYSATMPRAYPPQPGRAYSAQAHVNGSRTSGASTPISASHSIHSFPAGEWPINTGDYADQFAQTDTNKDGLVDGMDMRAPMMTTGLSAQILAHVWALADIKKCGQLNLEQFALTMHLLDMAKRGESIPSELPLHLIPPSFRPPTEPSALHHPAQSVSTPQLPEATSMEIKEALEGENEEMKQLAESIQSMLVERKTAEEAVLQLEADMTIKNSSIKNLQVELATLESTVKQLERQKGEATRRLADYDTQIEQLESACKAQKETKEDTEKRMQQIDEDAKNAEDCKANDEKEMEELKKEIEMLDNQFKTVRGEIVKETSQREQKVAELTTLERKEARDQIQMEKLDAAIENTTKLTEQVSDAVEKSEEEMVQILRSQQRLLSTVIDQSLLSDDTVYGETAGTSSQNHVQQPPDPFASARANPAADPFAQVDQFGSSGHFDAAFPTDPFAQGGFPSDSGFAQSAPAKPAPPRPAPPKSARETPVNDPFAPSQGQSTQPAGFADFADFGSAFN | not soluble
MSDPAIAVLPYGMKLGPALSGLPLDQVNWPLGCPERLVGKTLGDLGAGDHLLVYPRTGTHFQLSRGTRARISLIMAEPAVIHAKHYALLRVTWRRFHRVLTFNQAAVDRLPNARLLLFGSTWVPEWQSLTPEKVAQCSLIASAKRDSTGHKLRHAVVDWVRASDQDVAVLGRGYQPFDSKADGLAPYRYSVVIENVQERNYFSEKLLDAVFCETVPIYWGCPNIADFVDTTAMILCTREEDIRRAVAEMSAEDYAARLPALRALKQQLAPYAAHEARAARMILDELLEHHHHHH | soluble
GPGSMYNSGGEVRSYAQRVFALYSRENVLSVSRFCLAWYVLWGKQPNPTVTELLFGRCDASGDGNVTKYPKEICEEGYAAPLRGSSSDYCKRPSGVNTVAVGASVPPNATLQRRISEEEFVRFAVAYYDSMGNDASDLSDVPGAANPFHAVPRVAHWAHFIALAGDKGYVTLQDILETENVAWLRPPEYEDGDVNPKGVRGGGRAALLSHAFAIADSNKDGKVVFGDVENYMRPLSS | not soluble
MCFFLLCFLDSFRNRDTTQSDTDVIYPRDDPRASRSHQNFGFMDPPPRYEQIFKRGGGTPSVITTREAPSVTRSTGDGSLPPSYEQAALNARRESRPQLPQGTLREVPLTAIDMEHPAMSTPSSTVLDMESEITNITNHAQACVHRYDASHANEVTRTAVAVTTESPAPAQSTSNALPELEAPEGGPPGYDTISLHNETVSTR | not soluble
MSLKQLPKREELPENLTWDLTKIFSSDQEFDEKYLELSEELKQSEKHKGTLDQGASQFLNAIEFVLRVYRQTEVIYVYAHLKNDQDTGNTDYQALYARASSLFSKVSEAVSWFEPEILQLSDDQIWQYFKEEPKLEVYRHYIQQIVDNRAHVLSAEQESLLAGAGEIFDASSDTFAVLNNADLVFPTIEGENGEIVQLSHGVYGQLLESTDRRVREAAFKGLYSVYEQFRNTFASTLGTHIKGHNFKAKVRNYSSAREASLSNNHIPESVYDTLVDVVNKHLPLLHRYMELRKRLLEVEKLHMYDLYTPVLGEAPITFTYEEAKEKALEALKPMGEEYMAIVEKAFSERWIDVVENKGKRSGAYSSGSYDTNPYILLNWHDTLDQLFTLVHEMGHSVHSYFTRSNQPYVYGDYSIFLAEIASTTNENILTEYLLETEKDPRVRAYVLNHYLDGFKGTVFRQTQFAEFEHFMHTEDEKGVPLTSEYLSDSYGKLNAKYYGPAVEEDPEIKFEWSRIPHFYYNYYVFQYSTGFSAASALAKKILNQEPEALENYLAYLKAGNSDYPVEVMKKAGVDMTQAAYIEDAMSMFEQRLNELEELIDREGHHHHHH | soluble
HFRRSLRHIFRRRSAGELPAAHTAAAPGTPGEAAETPARPGLAKKFLPWSLAREPPPEALKEAVLRYSLADEASMDSGARWQRGRLALRRAPGPDGPDRVLELFDPPKSSRPKLQAACSSIQEVRRCTRLEMPDNLYTFVLKVKDRTDIIFEVGDEQQLNSWMAELSECTGRGLESTEAEMHIPSALEPSTSSSPRGSTDSLNQGASPGGLLDPACQKTDHFLSCYPWFHGPISRVKAAQLVQLQGPDAHGVFLVRQSETRRGEYVLTFNFQGIAKHLRLSLTERGQCRVQHLHFPSVVDMLHHFQRSPIPLECGAACDVRLSSYVVVVSQPPGSCNTVLFPFSLPHWDSESLPHWGSELGLPHLSSSGCPRGLSPEGLPGRSSPPEQIFHLVPSPEELANSLQHLEHEPVNRARDSDYEMDSSSRSHLRAIDNQYTPL | soluble
RWETHVYRAVKDLLVGLGFTEVLQLVLTSPRLVEAAGFSSMAVEVLNPVQQEYSVLRPTLLITLLQTLRENQHRRKPVKVFEAGNAVYLEDGEPRDEEKLALGVLDEEAGFEDVQAPLYAVLRIMGVDFEVEEASHPMFMEGRTAAVKVGGERLGYIGEVKPEVLEAFGLEYPVAAAEISLEVLARWTS | soluble
DVETCRDERCYRLWINSLGIDSYVNNVFEDVRNGWILLEVLDKVSPSSVNWKHASKPPIKMPFRKVENCNQVIKIGKQLKFSLVNVAGNDIVQGNKKLILGLLWQLMRFHMLQLLKSLRSEMTDADILSWANRKVRTMGRKLQIESFKDKSLSSGLFFLNLLWAVEPRVVNWNLVTKGETDDEKRLNATYIVSVARKLGCSVFLLPEDIVEVNQKMILILTASIMYWSLQR | soluble
MKHPIRKTLVTLGLLLTLCLPTPVAASSRSWKSWFIEQYFWLKRDKSYYSKQDDPSFQRYLDACREQSDKPYQLDTNLVNGPLVQENLYGMQVYSWNDNGKPDQKTIIYLAGGSYLNNPTTYHINMLKTLSTSLDAKIVLPIYPKAPRYTYNYTMPKLVNLYQHYYHKNQNVFLMGDSAGGGLALGLAHALHNESVPQPKQLVLLSPWLDVTMSHPEIPEYEDADPILSSWGLKRVGELWAYSADNTNHIYVSPKNGPITYLPPITLFTGTREIFYPDIRDYAAKLKAANHNITFITQEGMNHVYPIYPIEEAKTAQYQIIDAINKTP | not soluble
MRTAVIIPFYQREAGILSRALDSVDGQILPEGHSLTVFVIDDESPVSARSEVEGRQGKVPVRLIAQKNGGPGAARNAGLDAVAAEGFDHVAFLDSDDIWQPTHLADALDLLARGYDFHFCDHQRTDDDITYFERTPALRRMREERHAGVTVLDAEAPILAFDQPSIMAASVDTYLSQTSTVVVRQSFVETLRFDPRLRNAGEDQLFWLSLIAAGARTVVSWKMNVLCGRGVNVYFDAFDWKSTKVVDRTGYMLMFFHTVGRRLSLTASDRRTVADRIRRYRRAYSYLFLRALLQGRVPTLSLTWKLAALDPGLVPAMPLRFLAVLPNREAESLQWLEHHHHHH | not soluble
MRDFGEILAENRKKKGYSQSDLVNLLSQEGIQVTTKALSKWENNAREPALHVFLTLCQLLDIEDIYESFFGENPYNIMSGLNEEGRNKLIEFADILKASKKFSPLSAKIIPFHHPVEITWEPVSAGTGNYLEDSVKETYDVGHLAPEQTDFGVRISGDSMEPLYHTDDVAWIQKKDSLANGEIGIFYLNGNTYIKELHDEPDGVYLISLNQKYRPIQVLESDSFKIFGKVIGKCKGAEIPGFHLEHHHHHH | soluble
MLDTLLINIGQLLTMDQEDGLLRREAMNTLPVIENGVVGIENGVITFVGTAEEAKGLQAKEVIDSGGKMVSPGLVDPHTHLVFGGSRENEIALKLQGVPYLEILEQGGGILSTVNATKQASKEELVQKAKFHLDRMLSFGVTTVEAKSGYGLDDETEWKQLEATAQLQKEHPIDLVSTFLGAHAVPKEYKGRSKEFLQWMLDLLPEMKEKQLVEFVDIFCETGVFSVEESKEFLLKAKELGFDVKIHADEIDPLGGAEAAAEIGAASADHLVGASDKGIEMLANSNTVATLLPGTTFYLNKESFARGRKMIDEGVAVALATDFNPGSCPTENIQLIMSIAMLKLKMTPEEVWNAVTVNSSYAINRGDVAGKIRVGRKADLVLWDAYNYAYVPYHYGVSHVNTVWKNGNIAYTRGEQSWSTATI | not soluble
